Reference: patent US20100172907A1 (Hoffmann-La Roche, published 2010)
Numbering of substitutions follows the chain as printed. Groups on a side chain read outwards from the residue. No end group written: not given here. NSMP = not defined here

T1: BSA-conjugated Aβ heptapeptide VFFAEDC (C-terminal Cys coupled to NSMP-activated BSA)
T1 construct: also called Peptide 18-23
T1 peptide: VFFAEDC

T2: BSA-conjugated Aβ heptapeptide AEFRHDC (C-terminal Cys coupled to NSMP-activated BSA)
T2 construct: also called Peptide 2-7
T2 peptide: AEFRHDC

T3: BSA-conjugated Aβ heptapeptide FFAEDVC (C-terminal Cys coupled to NSMP-activated BSA)
T3 construct: also called Peptide 19-24
T3 peptide: FFAEDVC

T4: BSA-conjugated Aβ heptapeptide LVFFAEC (reading uncertain; also: BSA conjugate)
T4 construct: also called Peptide 17-22
T4 peptide: LVFFAEC([NSMP-BSA])

B1: MS-Roche #3.4.H2 Fab (Fab, V domains shown)
VH: QVQLVESGGGLVQPGGSLRLSCAASGFTFSSYAMSWVRQAPGKGLEWVSVIDMVGHTYYADSVKGRFTISRDNSKNTLYLQMNSLRAEDTAVYYCARLTHYARYYRYFDVWGQGTLVTVSS
VL: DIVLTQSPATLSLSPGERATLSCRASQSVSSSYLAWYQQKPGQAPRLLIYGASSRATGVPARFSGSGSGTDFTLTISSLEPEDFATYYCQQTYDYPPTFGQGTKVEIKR
notes: H-CDR2 printed with 16 residues
B2: MS-Roche #7.12.L1 Fab (Fab, V domains shown)
VH: QVQLVESGGGLVQPGGSLRLSCAASGFTFSSYGMSWVRQAPGKGLEWVSNISGSGSSTYYADSVKGRFTISRDNSKNTLYLQMNSLRAEDTAVYYCARGKGNTHKPYGYVRYFDVWGQGTLVTVSS
VL: DIVLTQSPATLSLSPGERATLSCRASQYVFRRYLAWYQQKPGQAPRLLISGSSNRATGVPARFSGSGSGTDFTLTISSLEPEDFAVYYCLQLYNIPNTFGQGTKVEIKR
B3: MS-Roche #7 Fab (Fab, V domains shown)
VH: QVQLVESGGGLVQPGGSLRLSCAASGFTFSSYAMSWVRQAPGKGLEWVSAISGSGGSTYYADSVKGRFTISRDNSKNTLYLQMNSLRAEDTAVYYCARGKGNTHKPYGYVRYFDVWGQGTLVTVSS
VL: DIVLTQSPATLSLSPGERATLSCRASQSVSSSYLAWYQQKPGQAPRLLIYGASSRATGVPARFSGSGSGTDFTLTISSLEPEDFATYYCFQLYSDPFTFGQGTKVEIKR
notes: parental HuCAL Fab; also called MSR-7 Fab; MS-R 7
B4: MS-Roche #7.2.L1 Fab (Fab, V domains shown)
VH: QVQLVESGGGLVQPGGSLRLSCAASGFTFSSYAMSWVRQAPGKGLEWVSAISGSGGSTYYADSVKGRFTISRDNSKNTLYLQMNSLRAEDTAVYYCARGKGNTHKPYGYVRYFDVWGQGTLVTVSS
VL: B3 VL with S28Y, S30D, S31R, S32T, F90Q, L92I, D95F, F97H
B5: MS-Roche #7.2.H2 Fab (Fab, V domains shown)
VH: B2 VH with G33A, N50A, S52N, S54T, S56M, S57K, T58K
VL: B3 VL with F90Q, L92I, D95F, F97H
B6: MS-Roche #7.9.H2 Fab (Fab, V domains shown)
VH: B2 VH with G33A, N50A, S52N, G53A, S54D, S56N, S57R, T58K
VL: B3 VL with F90L, L92I, S94N, D95M, F97I
notes: assembled
B7: MS-Roche #7.2.H5 Fab (Fab, V domains shown)
VH: B2 VH with G33A, N50A, S52N, G53A, S54T, S56R, T58K
VL: B3 VL with F90Q, L92I, D95F, F97H
B8: MS-Roche #7.2.H3 Fab (Fab, V domains shown)
VH: B2 VH with G33A, N50A, S52N, G53A, S54N, S56Y, S57K
VL: B3 VL with F90Q, L92I, D95F, F97H
B9: MS-Roche #7.9.H3 Fab (Fab, V domains shown)
VH: B2 VH with G33A, N50A, S52N, G53Y, S54Q, S56N, S57R, T58K
VL: B3 VL with F90L, L92I, S94N, D95M, F97I
notes: assembled
B10: MS-Roche #7.4.H1 Fab (Fab, V domains shown)
VH: B2 VH with G33A, N50A, S52N, G53A, S54T, S56Y, S57R
VL: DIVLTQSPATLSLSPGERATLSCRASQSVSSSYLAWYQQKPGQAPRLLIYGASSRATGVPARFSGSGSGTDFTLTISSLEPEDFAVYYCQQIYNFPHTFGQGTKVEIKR
B11: MS-Roche #7.4.H2 Fab (Fab, V domains shown)
VH: B2 VH with G33A, N50A, S52N, G53Y, S54N, S56A, S57R, T58I
VL: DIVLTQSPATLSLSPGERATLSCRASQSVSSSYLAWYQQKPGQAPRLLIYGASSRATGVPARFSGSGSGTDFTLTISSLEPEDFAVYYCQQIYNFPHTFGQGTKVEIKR
B12: MS-Roche #7.2.H4 Fab (Fab, V domains shown)
VH: B2 VH with G33A, N50A, S52N, G53S, S54K, S57R, T58I
VL: B3 VL with F90Q, L92I, D95F, F97H
B13: MS-Roche #7.2 Fab (Fab, V domains shown)
VH: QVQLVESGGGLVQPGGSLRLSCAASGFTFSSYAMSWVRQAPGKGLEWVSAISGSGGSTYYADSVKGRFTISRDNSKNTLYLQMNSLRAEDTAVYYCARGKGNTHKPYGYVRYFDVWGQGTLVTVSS
VL: B3 VL with F90Q, L92I, D95F, F97H
B14: MS-Roche #7.9.H1 Fab (Fab, V domains shown)
VH: B2 VH with G33A, N50A, S52N, G53A, S54N, S56Q, S57R, T58K, Y59F
VL: B3 VL with F90L, L92I, S94N, D95M, F97I
notes: assembled
B15: MS-Roche #7.2.H1 Fab (Fab, V domains shown)
VH: B2 VH with G33A, N50A, S52N, G53A, S54N, S56L, S57K, T58K
VL: B3 VL with F90Q, L92I, D95F, F97H
B16: MS-Roche #7.9.H4 Fab (Fab, V domains shown)
VH: B2 VH with G33A, N50A, S52N, G53A, S54V, S56M, S57K, T58K, Y59F
VL: B3 VL with F90L, L92I, S94N, D95M, F97I
notes: assembled
B17: MS-Roche #3.4.H7 Fab (Fab, V domains shown)
VH: QVQLVESGGGLVQPGGSLRLSCAASGFTFSSYAMSWVRQAPGKGLEWVSVISETGKNIYYADSVKGRFTISRDNSKNTLYLQMNSLRAEDTAVYYCARLTHYARYYRYFDVWGQGTLVTVSS
VL: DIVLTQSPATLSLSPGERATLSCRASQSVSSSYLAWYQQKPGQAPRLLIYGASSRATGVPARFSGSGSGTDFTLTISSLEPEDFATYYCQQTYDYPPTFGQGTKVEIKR
B18: MS-Roche #3.4.L9 Fab (Fab, V domains shown)
VH: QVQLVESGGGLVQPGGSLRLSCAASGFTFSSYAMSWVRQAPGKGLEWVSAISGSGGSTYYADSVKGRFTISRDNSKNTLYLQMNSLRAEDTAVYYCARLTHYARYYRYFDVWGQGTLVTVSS
VL: DIVLTQSPATLSLSPGERATLSCRASRRIHVYYLAWYQQKPGQAPRLLIYGASSRATGVPARFSGSGSGTDFTLTISSLEPEDFATYYCQQTYDYPPTFGQGTKVEIKR
B19: MS-Roche #3.6.H3 Fab (Fab, V domains shown)
VH: B17 VH with N57F
VL: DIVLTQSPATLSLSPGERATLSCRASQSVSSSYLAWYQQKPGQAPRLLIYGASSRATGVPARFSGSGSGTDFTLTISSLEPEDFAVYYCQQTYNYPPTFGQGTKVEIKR
B20: MS-Roche #3.6.L2 Fab (Fab, V domains shown)
VH: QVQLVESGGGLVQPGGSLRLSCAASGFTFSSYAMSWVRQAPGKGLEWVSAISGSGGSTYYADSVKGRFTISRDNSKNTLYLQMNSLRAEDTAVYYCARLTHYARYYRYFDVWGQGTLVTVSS
VL: B18 VL with R27Q, R28F, I29L, H30S, V31R, T86V, D94N

Biological target: T1, BSA-conjugated Aβ heptapeptide VFFAEDC
Assay: ELISA
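Throughout, for OD ratio 18-23/BSA: ELISA of antibody at 10 or 2 µg/ml binding plate-coated BSA–peptide conjugates, detected with HRP anti-human Ig and TMB colour, mock-treated BSA without peptide as negative control.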
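Throughout, for OD ratio 19-24/BSA: ELISA of antibody at 10 or 2 µg/ml binding plate-coated BSA–peptide conjugates, detected with HRP anti-human Ig and TMB colour, mock-treated BSA without peptide as negative control.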
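Throughout, for OD ratio 2-7/BSA: ELISA of antibody at 10 or 2 µg/ml binding plate-coated BSA–peptide conjugates, detected with HRP anti-human Ig and TMB colour, mock-treated BSA without peptide as negative control.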
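Throughout, for Peptide-ratio 18-23/2-7: ELISA of antibody at 10 or 2 µg/ml binding plate-coated BSA–peptide conjugates, detected with HRP anti-human Ig and TMB colour, mock-treated BSA without peptide as negative control.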
Description: (§1) 50 μl of NSMP activated BSA (6.7 mg/ml) was diluted with 50 μl of PBS, 0.1% sodium azide and 10 μl of peptide solution (1 mM in DMSO) was added. As negative control activated BSA was mock-treated without peptide addition. After 4 hrs at room temperature the reaction was stopped by addition of 10 μl of 10 mM Cystein. An aliquot of the conjugate reaction mixture was diluted 1:100 with 0.1M sodium bicarbonate buffer and immediately filled into the wells (100 μl) of ELISA plates (Nunc Immuno-Plate). After standing 16 hrs at 4° C. 100 μl blocking buffer (as above) was added to each well and incubated for another 30 minutes. The plates were washed with 2×300 μl/well TBST (as above) and filled with 100 μl antibody at 10 μg/ml or 2 μg/ml in blocking buffer. The plates were kept 16 hours at 4° C. and washed with 2×300 μl TBST. 100 μl/well HRP-conjugated anti-human Ig H+L (Pierce, dilution 1:1000 with blocking buffer) was added and incubated for 1 hour at ambient temperature. The plates were washed with 3×300 μl/well TBST. Colour development was started by addition of 100 μl tetra-methyl benzidine/hydrogen peroxide reagent.

OD ratio 18-23/BSA | Peptide-ratio 18-23/2-7 | Binder
1 | 0.06 | B1
12 | 0.7 | B2
7 | 0.29 | B3
16 | 0.68 | B4
10 | 0.63 | B5
6 | 0.16 | B6
18 | 0.6 | B7
20 | 0.61 | B8
20 | 0.57 | B9
20 | 0.65 | B10
20 | 0.56 | B11
13 | 0.57 | B12
16 | 0.47 | B13
12 | 0.36 | B14
11 | 0.29 | B15
15 | 0.49 | B16
6 | 0.25 | B17

Biological target: T2, BSA-conjugated Aβ heptapeptide AEFRHDC
Assay: ELISA
Description: as §1

OD ratio 2-7/BSA | Binder
16 | B1
16 | B2
24 | B3
24 | B4
16 | B5
35 | B6
30 | B7
33 | B8
35 | B9
31 | B10
36 | B11
23 | B12
34 | B13
32 | B14
38 | B15
30 | B16
24 | B17

Biological target: T3, BSA-conjugated Aβ heptapeptide FFAEDVC
Assay: ELISA
Description: as §1

OD ratio 19-24/BSA | Peptide-ratio 19-24/2-7 | Binder
1 | 0.06 | B1
10 | 0.59 | B2
4 | 0.17 | B3
11 | 0.45 | B4
10 | 0.63 | B5
8 | 0.23 | B6
15 | 0.5 | B7
18 | 0.55 | B8
9 | 0.27 | B9
16 | 0.51 | B10
16 | 0.46 | B11
12 | 0.52 | B12
9 | 0.26 | B13
6 | 0.19 | B14
9 | 0.24 | B15
7 | 0.22 | B16
5 | 0.21 | B17

Biological target: T4, BSA-conjugated Aβ heptapeptide LVFFAEC
Assay: ELISA
Description: as §1

OD ratio 17-22/BSA | Peptide-ratio 17-22/2-7 | Binder
11 | 0.69 | B1
10 | 0.6 | B2
4 | 0.17 | B3
14 | 0.57 | B4
10 | 0.63 | B5
3 | 0.08 | B6
13 | 0.43 | B7
17 | 0.52 | B8
11 | 0.31 | B9
16 | 0.52 | B10
17 | 0.47 | B11
12 | 0.52 | B12
12 | 0.35 | B13
7 | 0.23 | B14
8 | 0.21 | B15
10 | 0.32 | B16

Biological target: T5, human Aβ (1-40) peptide (human)
T5 construct: also called Aβ1-40 fibers
Assay: SPR, immobilized fibers;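 note: biacore SPR using in vitro grown Aβ1-40 or Aβ1-42 fibrils immobilized on the chip with Fab analytes, KD from koff/kon fits or equilibrium isotherms based on total Fab concentration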
Description: (§2) Biacore2000 and Biacore3000 instruments were used for these measurements. Aβ1-40 and Aβ1-42 fibers were generated in vitro by incubation of synthetic peptides at a concentration of 200 μg/ml in 10 mM Na-acetate buffer (pH 4.0) for three days at 37° C. […] For binders with slow kinetics KD values were calculated by curve fitting of the time-dependent sensor responses, i.e. from the ratio of koff/kₒₙ. Binders with fast kinetics were analyzed by fitting the concentration-dependent sensor responses at equilibrium (adsorption-isotherms). KD values were calculated from the Biacore sensograms based on the total Fab concentration as determined by a protein assay. […] Briefly, time-dependent protein binding to Aβ1-40 fibers immobilized on the Biacore chip was measured during the association phase under mass-limited conditions at different flow rates of the analyte solution.

Kd | Binder
16.3 nM | B18
5.4 nM | B19
13.7 nM | B20
1100 nM | B3
13.3 nM | B4
8.2 nM | B5
5 nM | B6
8 nM | B7
45.4 nM | B8
4.2 nM | B9
9.9 nM | B11
5.9 nM | B12
22 nM | B13
9.3 nM | B15
4.8 nM | B16
19.2 nM | B17

Biological target: T6, Aβ (1-42) peptide (human)
T6 construct: also called Aβ1-42 fibers; Aβ4
Assay: SPR, immobilized fibers;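 note: biacore SPR using in vitro grown Aβ1-40 or Aβ1-42 fibrils immobilized on the chip with Fab analytes, KD from koff/kon fits or equilibrium isotherms based on total Fab concentration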
Description: as §2

Kd | Binder
3.8 nM | B2
9.1 nM | B18
7.5 nM | B19
13.1 nM | B20
1710 nM | B3
12.7 nM | B4
8.2 nM | B5
5.7 nM | B6
10.1 nM | B7
5.3 nM | B8
2.8 nM | B9
6.2 nM | B11
5 nM | B12
58 nM | B13
10.2 nM | B15
4.2 nM | B16
31.7 nM | B17
